In patent US20190135934A1 (published 2019):
Where a chain is given by its changes, count along the chain named.

T1: CD20 protein on CD20 protein-positive lymphoma cell Raji (ATCC CCL-86) (UniProt P11836 1-297, limits assumed)
T1 construct: whole, on cells; The target is native CD20 on Raji cells; also called CD20 antigen
T1 sequence (looked up): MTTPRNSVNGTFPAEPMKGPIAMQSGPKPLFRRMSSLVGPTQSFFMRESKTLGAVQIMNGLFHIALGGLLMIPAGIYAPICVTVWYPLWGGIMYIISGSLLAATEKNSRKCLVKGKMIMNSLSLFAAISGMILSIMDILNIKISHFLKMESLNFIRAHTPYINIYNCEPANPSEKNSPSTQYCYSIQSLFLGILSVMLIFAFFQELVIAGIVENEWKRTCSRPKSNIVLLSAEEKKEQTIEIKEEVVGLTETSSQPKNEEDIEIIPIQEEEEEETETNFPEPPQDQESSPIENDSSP

B1: novel CD20 antibody H102YH (antibody, human IgG1, V domains shown)
VH: QVQLQQPGAELVKPGASVKMSCKASGYTFTSYNMHWVKQTPGRGLEWIGAIYPGNGDTSYNQKFKGKATLTADKSSSTAYMQLSSLTSEDSAVYYCARSTYHGGDWYFNVWGAGTTVTVSA
VL: QIVLSQSPAILSASPGEKVTMTCRASSSVSYIHWFQQKPGSSPKPWIYATSNLASGVPVRFSGSGSGTSYSLTISRVEAEDAATYYCQQWTSNPPTFGGGTKLEIKV
B2: novel CD20 antibody H102YR (antibody, human IgG1, V domains shown)
VH: B1 VH with H102R
VL: B1 VL
B3: novel CD20 antibody H102YN (antibody, human IgG1, V domains shown)
VH: B1 VH with H102N
VL: B1 VL
B4: novel CD20 antibody H102YQ (antibody, human IgG1, V domains shown)
VH: B1 VH with H102Q
VL: B1 VL
B5: novel CD20 antibody H102YS (antibody, human IgG1, V domains shown)
VH: B1 VH with H102S
VL: B1 VL
B6: novel CD20 antibody H102YM (antibody, human IgG1, V domains shown)
VH: B1 VH with H102M
VL: B1 VL
B7: novel CD20 antibody H102YV (antibody, human IgG1, V domains shown)
VH: B1 VH with H102V
VL: B1 VL
B8: novel CD20 antibody H102YL (antibody, human IgG1, V domains shown)
VH: B1 VH with H102L
VL: B1 VL

Target: T1, CD20 protein on CD20 protein-positive …
Test: flow cytometry, fluorescently labeled antibody on Raji cells
Method: Briefly, after diluted in equal concentration proportions, the purified fluorescently labeled antibody was incubated with the CD20 protein-positive lymphoma cell Raji (ATCC CCL-86) for 45 minutes on ice, and then washed twice and subjected to flow cytometry. The binding activity of the antibody was further evaluated based on the change in fluorescence intensity of the antibody after binding to the cells at different antibody concentrations.

Binding result, binds:
B1
B2
B3
B4
B5
B6
B7
B8
